Here are results for 68 sequences from the domain aggregation screens of Martell et al. (2025).

The data set in a line: soluble fraction after stress (log2 fold change); higher = more stays soluble; pooled small domains, quantitative proteomics. Particulars: stress: 50 degC. The method, boiled down:
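Each library was heated to 50°C as a stress step. The libraries, made up of small protein domains, were pooled and analysed at high throughput by quantitative proteomics. The reported value is the base-two logarithm of the fold change in each protein's soluble amount after stress, taken as a measure of aggregation propensity. The higher the value, the more protein stays in solution.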
With “HMGNLASGAYEQIKRRILSLEYLPGSILQERGLAEELGISRTPVREAIHRLSQEGWLKINSRKNIRVR”, the “soluble fraction (log2)” value was -1.98.
On to “HMGNLASRVAEQLLDKMRGDSLVPGTRLPSEIAMAKHFGVSRTVMREAIARLKADGLLETRRGSGAFVLAT”, for which the “soluble fraction (log2)” value is -0.664.
“HMGNLEENFRLKAGTEDGAWEFIRYHLGKLPVVNESNGTAIVNAERQAFLLFDRMVAFHIQRGVMVPLSAP”: the “soluble fraction (log2)” value was 0.0891.
As to “HMGNLVDGINKKLTHVRDSLPEGYTLDEFKSAFQQQYPAAYDAYEGDKGKQFDKWLGNVIQSLPKK”, the “soluble fraction (log2)” value was found to be 0.161.
Consider “HMGNNSIDIKDVIYNLVEISQLQAFDIVKHFKTWENLVNKPDELDTVIDGDSDIVDRIKYKIKSLS”, for which the “soluble fraction (log2)” value stood at 0.109.
Consider “HMGNQALSSVLSDIAGIGPVKTKELLRVYPDLDSLRQAPVEEVAKVKGIGRQLAQKIHDHFSSR”, for which the “soluble fraction (log2)” value came to 0.189.
For the sequence “HMGNRWENLISNKMIDDVDEELLRKYIAQAHDAGRIAISYTDRKTVLNQLELTDGDRLLNAGKVLFSD”, the “soluble fraction (log2)” value was -0.094.
In the case of “HMGNTTEVLVATQDVKANTKIKESMFTTERVDTASLPDNYLSADSAKDVVGYYTYIGFTKGSVISKSNIAT”, the “soluble fraction (log2)” value came out at 0.0925.
With “HMGNVRSWKGWTSAGGTRVQMRQGDSINSMARRYGVPIQAIVAVNGIDDPAKVQPGQSVIIPTYVY” the figure was 0.0448; with “HMGNWEQQLRSWADGELATGKQDILTTAVPAFERALIETALSHTNGRKRDAAELLGWGRNTLTRKLKELGM”, -0.371.
Consider “HMGNYEEAILAFEAAIKIDPKNADAYRKLAEAYEKTGDEDAALRTLETGAEATGDRELADLAEKKRQELDA”, for which the “soluble fraction (log2)” value worked out at 0.169.
Turning to “HMGPASTGAHQLGLKPGDEVTHRAWGEGVVTSTTGEGDRAEAVVDFDAVGEKRLLLAWAPLER”, the “soluble fraction (log2)” value turned out to be 0.00864.
For “HMGPDTVDRTRRFKWVDNEVVVNFGKNAGRTLRDLAENDPGFLRWIVRSDFSDEVRTIANDALMGKFPTRK”, the “soluble fraction (log2)” value turned out to be 0.00109.
Turning to “HMGPEAFPVPYVVDIELDRAIYVIEQSGFIVGQKLEANDNNVPRGFVISQNPPAGTKLGPESIVDLVVSS”, the “soluble fraction (log2)” value was -0.519.
Consider “HMGPLDIAQLKSDFLGGDAQLARRAWDQLATKAGDEGRDFLISSLGSSDPQIRNRVALGIHES”, for which the “soluble fraction (log2)” value is 0.0489.
Consider “HMGPLTMGQRIVRLRTQAGLSQDALAEQLGVSRQSVSKWETDGSVPDLDRLVKLSKVFGVTLDELVKG”, for which the “soluble fraction (log2)” value was -0.024.
With “HMGPPAVGAKLQVLRQARKLSLDELSRRAGVSKSMLSQVERNLANPTVAVLWRLATALGVGLADFLSP” the figure was -1.39; with “HMGPRVSAGPGRHRVQPGDTLDDIAARYRVSSRDLMLVNGLRNANHVEAGQTLKLPSNAVIA”, 0.28.
As to “HMGPSLIRIASNPVAEVFIDGTRVGTTPFEMPADGTLKTVRLTAKDHDDLVVPLRSMKSMEIMLTLRRI”, the “soluble fraction (log2)” value was -0.589.
To “HMGPTLTDEEEVVLNLLEKNHPVLLSELKENAGLSNKKWDKAIKGLSAHKLAKVTKTDDGLFVHLS” belongs 0.0395; to “HMGPTPTSAQLTEAKRLRTKLDDLNPELAERLWSEHREPYTETQYQTLIEKLAAEVQSAEGEIGR”, 0.182; to “HMGPVRRDLEINGRMVPLTIREHARATRITLRIEPGGQALRLTIPPGLPTREVDSFLTRHHGWLMTKLAHI”, -1.79.
On to “HMGPWTETAAKGDAVSKRMLITWLQENADAEFLAAQKLTGQATSVAKRVTKDQLVELYLSVTTAA”, for which the “soluble fraction (log2)” value is -0.53.
With “HMGQAAHYEGVKGDGESDTDVISRVLTAAGAEAQKDDIFVVKELIAGGKYSYTAYVYDGSVWAAM” the figure was -0.266; with “HMGQAEEVRYSTFLDEVRNGRIEQVVLQGEHIIGTRKDKTVFSVFNPETDYTALIGTLSKSGVTIEGRP”, 0.081; with “HMGQARQSAIRELGNDPTSGKKITVRSGRYGPYVTDGEVNASLRKGDDPQTIDLDRAIELLAARREKLG”, 0.13.
Regarding “HMGQDGFIGLEAAKKLVLQKLGLTSAEFIKAELDAEDRKYELELIVDGIEYDFDIDAYSGAFLKQEQETV”, the “soluble fraction (log2)” value was -0.215.
For “HMGQEEKDIFLKLINISGIGPKLALNILSGIEASELEEAVRNTNVTRLSMVPGIGQKTALRIIMELSDKLE”, the “soluble fraction (log2)” value is -0.432.
As to “HMGQELTMPDLKSMSRSNAEEKLKKMGLKLGAVFEENAKEPAGTVINQDPRSGSKITKGQTVDITVSLGEK”, the “soluble fraction (log2)” value turned out to be 0.131.
With “HMGQERAVPDVKGQSFDMAQGNISRAGLKAVVTDSVYDSYARPGTVVEQSPIPLAKIKRGGTVYLTLVA” the figure was -0.105.
For “HMGQGSAFVYYEVLPKQTEYSLTRKLGLGYADLLSLNPQLARGLQAGMVLKIPRDKAGNLEVKNDLILE”, the “soluble fraction (log2)” value is -0.271.
Take “HMGQISLSVNAIPEKAEVILDGNSIGNTPIRKNTITPGSHMFEIEKKGYAPISYDIYVNPSKAINLDFFM”: the “soluble fraction (log2)” value is -0.63.
On to “HMGQKDYKTRLQEYFAKQGLKVNYEDTSHGPDHNKNFSTDVFLDGKIIGSGIGKSKKSSQQSAAKDALNIL”, for which the “soluble fraction (log2)” value was determined as 0.338.
On to “HMGQLIGKEEAKQIALSRAGVAEGDISRYESELDTDDGKTKYEISFHVGRVEYDIEINAVTGAVEKFEMDN”, for which the “soluble fraction (log2)” value came to 0.131.
Regarding “HMGQTDTIIKTTTDLYYEMSTMSDDDKLVVAQTLRDVWMAVGRWSGKLSKKQREKVAEVKRVLGE”, the “soluble fraction (log2)” value is -0.833.
Turning to “HMGQVAKPPLKELGADPVTGKPMVLKDGRFGPYVTDGEYNASLRKDDDIETIGVERAAELLQIRREKGP”, the “soluble fraction (log2)” value was -0.081.
With “HMGQVGIPFSDFLAEVENGQVREVVIKGNDISGTFNDNRGFSTYAPNDPNLVEKLTKRGVVINAQPTE”, the “soluble fraction (log2)” value was determined as 0.0645.
Regarding “HMGQVSEAGELEVAADRVIAANPEAVTKYKSGNENILQFLVGQMMKETKGAANPQVAAEILRKKIV”, the “soluble fraction (log2)” value came to 0.254.
On to “HMGRELDLNQRVYDFIHDIADEVRTDEGTFSANQMMERFLFPGDLQSVPIGRLSGGERRRLYLLSVLMVKI”, for which the “soluble fraction (log2)” value stood at 0.117.
On to “HMGRFPSLTPVVIDALTAQYREHPGWTVQLHVDNLRVVLAANQTPLPSYPTIRRYLLAQGMRRQTRP”, for which the “soluble fraction (log2)” value is -0.426.
“HMGRLNMRRIRDVLRLKFGQGLSERQVAASLGLSKTSVGTYLHRARQAGLTWPLPQGLDDDGLELLLFP”: the “soluble fraction (log2)” value is -1.29.
Regarding “HMGRMTRKDRALATDLYGRIVGNVDDFHEGRIDYETFSERQRGLWTTLDAAGPEVKRAVLADIRERL”, the “soluble fraction (log2)” value is -0.187.
Consider “HMGRWQPSTSAKQHGESALLLERLLHLERLTVSEAFHVLTINHRLNLSLPEYRSLLAVVQLPK”, for which the “soluble fraction (log2)” value is -1.57.
On to “HMGRYDWIEQIDDPVLAERLKHLTEDDLELLTRYVFEDATQKELASQYGIGQQSVSKRLKKLKSFLTK”, for which the “soluble fraction (log2)” value came to 0.00228.
Take “HMGSATAPDLKGLTYEQAQTKAEDAGYNIEKGEDVYDNDVEKGKVASQDPEAGAEAKEGSVITVNISK”: the “soluble fraction (log2)” value is -0.0349.
To “HMGSFAADVGRMVRLGRAKRGISRRKLAADSGISERYLAQIEGGQGNPSVNVLKAIADAISVPVFELLPH” belongs -1; to “HMGSFDDAPDQLRQSILQLLAEGPLPPSAITERLNISREDATEALQQLLDEQRIFAVNGMLQLQPG”, -0.0107.
As for “HMGSFTDKQIKQAFGVLNDPRFKQGNYDGAVAVINKIAPGLADHPSVANALKRANEATQDIAQQTQA”, the “soluble fraction (log2)” value was determined as 0.161.
Consider “HMGSGQIRYITENTVRVVYGTSKENEFVFQDGKPYPKDTPYHIHYTRNLEEYFMSGVEHDKNSKIILKVD”, for which the “soluble fraction (log2)” value was -0.803.
“HMGSGVNVTVNGKRMNLPLKDDHIIFVDIFNYIDFDLSKPKGSIVLKLNGRDAGYTDPIKDGDVIDIYWQ”: the “soluble fraction (log2)” value came out at 0.33.
“HMGSIDYLVGSRLRQYRRLRGYSLIEFSAMLHRSKSAISKYERGEVSIDLRTLNEMARLLDIPLSGLLL”: the “soluble fraction (log2)” value was -4.56.
With “HMGSIEASFEEDVRRYLARKSMTTTEISKKMRQKRPDMSRDQLMTLLANAIKRIKPIKKKIKGTLYLSLE” the figure was -1.3.
For “HMGSIMIIVLKENAPQQAAEKLMKEIRAKGLQIDVSKGTRKTVLGLVGDTSVIDMEHVQGYDYVDKVLRV”, the “soluble fraction (log2)” value was 0.0715.
Regarding “HMGSKDLPFSTFMSEIDKGNITSVDIRGNEIQGTFANGTKFRTYSPNYPNLVEKLNGKGVSITAGPV”, the “soluble fraction (log2)” value worked out at 0.215.
Regarding “HMGSKKITIYVSGEVKNPGIVTLNSDQRLASAVEKLGGVTENADMNNINLAMKLEDEMHYIIPKKGEK”, the “soluble fraction (log2)” value was determined as 0.28.
With “HMGSKQVSVPDVRNLDYERASQQLREAGFVVGDVLRIRDDRAPAGTVIAQSPAAPALVPENARVSLLVSSG”, the “soluble fraction (log2)” value was 0.251.
Take “HMGSLAVVPSLTGKTLQEAQSKAADYGLALEIEGYVASTAVDYGRIVSQSPDAGFSVKSGSSVKVSVSAG”: the “soluble fraction (log2)” value is 0.117.
Consider “HMGSLGRAIRSRREKMKVGLEELAAKTGLSESHISDIEEGRGFAPVGDILKIARALTIDPGELLK”, for which the “soluble fraction (log2)” value came to 0.361.
Take “HMGSLGSLLKSVRNQRGLSRQQMAQSLNIGVRAIEQIEEGERKPDLELLNRYARGLMDPSVT”: the “soluble fraction (log2)” value is -0.0584.
For “HMGSLKEKIVLLEKLYQQNPSEEIKLLLINTYQLNHQYIQARKLFFTLTPEQKEKLPLASEFLIFL”, the “soluble fraction (log2)” value is -0.871.
With “HMGSLNDQVMKYIDALPSAFNKRELDFLIERGVKEFALNGEYLEKAIINEYKLTADTYHRER”, the “soluble fraction (log2)” value turned out to be 0.0641.
As to “HMGSLQPLLLAAIDALQTHIRSGLPFRVEERLAELDQFRTELQNGSVPPQRGVNRLWAFYEDEFRL”, the “soluble fraction (log2)” value is -0.798.
With “HMGSLRSALDGIPGIGEQYQKRLLAQFGSVKAMRSASVEDFEAVRGIGRAKAQALYDALHAG”, the “soluble fraction (log2)” value was -0.131.
As for “HMGSLVVVPNLVGQNYDEVKLSTKYSDFEIVQKNTEYSEAPAGQIIKQDPEAGTKVKKHSTINVTVSK”, the “soluble fraction (log2)” value was -0.354.
“HMGSQELIQLGERIRQKRKDSHLTQETFAEKAGISVNTVSRIEGGQAAMSIEIFAKLVEILDADANELLG”: the “soluble fraction (log2)” value was -1.14.
As for “HMGSRAEAKEFLQTMLADGRQLATDMEEARQAHDIADRTLRRARKELNVQVYRDGNAWYWELPTPIK”, the “soluble fraction (log2)” value is -0.0501.
“HMGSREVPFSDFISKVESGSVLEVVLRGRQVEGLTDANERFQTQIPNYPALFEILERNQVRTRVEPT”: the “soluble fraction (log2)” value is 0.0852.
For the sequence “HMGSTATVIASRLNMRASASTTGALLTKIPNGATVTVLGTTGAWSHIRYGSYTGYVMSQYLRING”, the “soluble fraction (log2)” value is -0.203.
